According to the RNAGym collection of RNA variant scans (doi:10.1073/pnas.2313332121):

B1: TPR t1 (parent)
chain: GACCAAUCUGCCCUCAGAGCUCGAGAACAUCUUCGGAUGCAGAGGAGGCAGGCUUCGGUGGCGCGAUAGCGCCAACGUCCUCAACCUCCAAUGCAUCCCACCACAUGAUGAUGCCUGAAGAGCCUUGGUUUUUUG

Variants of: B1
Assay: polymerase ribozyme fitness, log enrichment relative to wild type (log ratio); higher = more active; in vitro selection for triplet polymerase activity
Procedure, shortened: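 Frozen incubation at −7 °C formed the core of a single, triplicate in vitro selection round applied to PCR-built, transcribed mutant libraries of each subunit of a heterodimeric triplet polymerase ribozyme. Extended constructs were gel-excised, captured with streptavidin beads and amplified by RT-PCR, and input and output libraries were Illumina-sequenced with a filter of ≥10 input reads and ≥1 read per output. Fitness is the logarithm of genotype enrichment relative to wild-type enrichment, with inverse-variance-weighted replicate averaging, and the logarithm is base 2.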

Variant | polymerase ribozyme fitness (log ratio)
GACCAAUCUGCCCUCAGAACUCGAGAACAUCUUCGGAUGCAGAGGAGGCAGGAUUCGGUGGCGCGAUAGCGCCAACGUCCUCAACCUCCAAUGCAUCCCACCACAUGAUGAUGCCUGAAGAGCCGUGGUUUUUUG [G19A C53A U125G] | -3.26
GACCAAUCUGCCCUCAGAACUCGAGAACAUCUUCGGAUGCAGAGGAGGCAGGCUUCGGUGGUGCGAUAGCGCCAACGUCCUCAACCUACAAUGCAUCCCACCACAUGAUGAUGCCUGAAGCGCCUUGGUUUUUUG [G19A C62U C88A A121C] | -1.46
GACCAAUCUGCCCUCAGAAGUCGAGAACAUCUUCGGAUGCAGAGGAGGCAGGCUUCGGUGGCGCGAUAGCGCCAACGUCCUCAACCUCCAAUGCAUCCCACCACACGAUGAUGCCUAAAGAGCCUUGGUUUUUUG [G19A C20G U106C G117A] | -6.46
GACCAAUCUGCCCUCAGACCUCGGGUACAUCUUUGGAUGCAGCGGAGGCAGGCUUCGGUGUCGCGAUAGCGCCAACGUCCUCAACCUCCAAUGCAUCCCACCACAUGAUGAUGCCUGAAGAGGCUUGGUUUUUUG [G19C A24G A26U C34U A43C G61U C123G] | -7.57
GACCAAUCUGCCCUCAGAACUCGAGAACAUCUUCGGAUGCAGAGGAGGCAGGCUUCGGUGGCGCGAUAGCGCCAACGUCCUCAACCUCCAAUGCAUCCCACCACAUGAUGAUGACUGAAGUGCCUUGGUUUUUUG [G19A C114A A121U] | -1.17
GACCAAUCUGCCCUCAGACCUCGAGAACAUCUUCGGAUGCUGAGGAGGCAGGCUUCGGUGGCGGGAUAGCGCCAACGUCCUCAACCUCCAAUGCAUCACACCACAUGAAGAUGCCUGAAGAGCCUUGGUUUUUUG [G19C A41U C64G C98A U109A] | -6.43
GACCAAUCUGCCCUCAGAACUCGAGAACAUCUUCGGAUGCAGAGGAGGCAGGCUUCGGUGGCCCGAUAGCGCCAAAGUCCUCAACCUCCAAUACAUCCCACCACAUGAUCAUGCCUGAAGAGCCUUGGUUUUUUG [G19A G63C C76A G93A G110C] | -5.44
GACCAAUCUGCCCUCAGAACUCGAGAACAUCUUCGGAUGCAGAGGAGGCAGGCUUCGGUGGCGCGAUAGCGCCAACGUCCUCAACCUCCAAUGCAUCCCACCAUAUGAUGAUGCCUGAAGAGCCUUGGUUUUUUG [G19A C104U] | -2.85
GACCAAUCUGCCCUCAGAACUCGAGAACAUCUUCGGAUGCAGAGGAGGCAGGCUUCGGUGGCGCGAUAGUGCCAAGGUCCCCAACCUCCAAUGCAUCCCACCACAUGAUGAUGCCUGAAGAGCCUUGGUUUUUUG [G19A C70U C76G U81C] | -4.57
GACCAAUCUGCCCUCAGAACUCGAGAACAUCUUCGGAUGCAGAGGAGGCAGGCUUCGGUGGCGCGAUAGCGCCAACGUCCUCGACCUCCAAUGCAUCCCACCACAUGAUGAUGGCUGAAGACCCUUGGUUUUUUG [G19A A83G C114G G122C] | -4.41
GACCAAUCUGCCCUCAGAAAUCGAGAACAUCUUCGGAUGCAGAGGAGGCAGGCUUCGGUGGUGCGAUAGCGCCAACGUCCUCAACCUCCAAUGCAUCCCACCACAUGAUGAUGCCUGAAGAGCCUUGGUUUUUUG [G19A C20A C62U] | -4.22
GACCAAUCUGCCCUCAGAACUCGAGAACAUCUUCGGAUGCAGAGGAGGCAGGCUUCGGUGGCGCGAUAGCGCCAACGUCCUCAACCUCCAAUGGAUCCCACCACAUGAUGAUGCCUGAAGAGCCUUGGUUUUUUG [G19A C94G] | -3.41
GACCAAUCUGCCCUCAGAACUCGAGAACAUCUUCGGAUGCAGAGGAGGCAGGCUUCGGUGGCGCGAUAGCGCCAACGUCCUCAACCUCCAAUGCAUCCCACAACAUGAUGAUGCCUGAAGAGCCUUGGUUUUUUG [G19A C102A] | -5.35
GACCAAUCUGCCCUCAGAACUCGAGAACAUCUUCGGAUGCAGAUGAGGCAGGCUUCGGUGGCGCGAUAGCGCCAACGUCCUCAACCUCCAAUGCAUCCCACCACAUGAUGAUGCCUGAAGAGCAUUGGUUUUUUG [G19A G44U C124A] | -1.74
GACCAAUCUGCCCUCAGACAUCGAGAACAUCUUCGGAUGCAGAGGAGGCAGGCUUUGGUGGCGCGAUAGCACCAACGUCCUCAACCUCCAAUGCUUCCCACUACAUGAUGAUGCCCGAAGAGUCUGGGUUUUUUG [G19C C20A C56U G71A A95U C102U U116C C123U U126G] | -5.6
GACCAAUCUGCCCUCAGAACUCGAGAACAUCUUCGGAUGCAGUGGAGGCAGGCUUCGGUGGCGCGAUAGCGCCAACGUCCUCAACCUCCAAUGCAUCCCACCACAUGAUGAUGCCUGAAGAGCCUUGGUUUUUUG [G19A A43U] | -2.7
GACCAAUCUGCCCUCAGAACUCGAGAACAUCUUCGGAUGCAGAGGAGGCUGGCUUCGGUGGCGCGAUAGCGCCAACGUCCUCAACCUCCAAUGCAUCCCACCACAUGAUGAUCCCUGAAGAGCCUUGGUUUUUUG [G19A A50U G113C] | -2.01
GACCAAUCUGCCCUCAGUGCUCGAGAACAUCUUCGGAUGCAGAGGAGGCAGGCUUCGGUGGCGCGAUAGCGCCAACGUCCACAACCUCCAAUGCAUCCCACCACAUGAUGAUGCCUGAAGAGCCUUGGUUUUUUG [A18U U81A] | -3.77
GACCAAUCUGCCCUCAGAACUCGAGAACAUCUUCGGAUGCAGAGAAGGCAGGCUUCGGUGGUGCGAUAGCACCAACGUCCUCAACCUCCAAUGCAUCCCACCACAUGAUGAUGCCUGAAGAGCCUUGGUUUUUUG [G19A G45A C62U G71A] | -3.18
GACCAAUCUGCCCUCAGACCUUGAGAACAUCUUCGGAUGCAGAGGCGGCAGGCUUCGGUGUCGCGAUAGCGCCAACGUCCUCAACCUCCAAUGCAUCCCACCACAUGAUGAUGCCUGAAGAGCCUUGGUUUUUUG [G19C C22U A46C G61U] | -5.14
GACCAAUCUGCCCUCAGAAUUCGAGAACAUCUUCGGAUGCAGAGGAGGCAGGCUUCGGUGGCGCGAUAGCGCCAACGUCCUCAACCUCCAAUGCAUCCCACCACAUGAUGAUGCCUGAAGAGCCUUGGUUUUUUG [G19A C20U] | -1.54
